Numbering of substitutions follows the chain as printed. Numbers in names are those of the source.
T1: TNFR1 (Homo sapiens, UniProt P19438)
T1 chain: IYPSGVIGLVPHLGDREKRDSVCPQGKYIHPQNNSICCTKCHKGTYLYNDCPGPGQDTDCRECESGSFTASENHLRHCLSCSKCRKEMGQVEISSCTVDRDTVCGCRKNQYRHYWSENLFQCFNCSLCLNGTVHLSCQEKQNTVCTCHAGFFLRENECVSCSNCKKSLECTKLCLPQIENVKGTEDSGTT

B1: K100C (designed binder)
chain: SMEEEVEKAAKEYEKKKKEAIEKHLEKLKAKDKEAAERFLKELEEAAKEYAKDEAKTMSEEEAKRRAKKYKEKVLLSELSEEEQKEIKEAEEKLVRTILCYVEEAAK
B2: A106V (designed binder)
chain: B1 chain with C100K, A106V
B3: E19W (designed binder)
chain: B1 chain with E19W, C100K
B4: E22F (designed binder)
chain: B1 chain with E22F, C100K
B5: K16L (designed binder)
chain: B1 chain with K16L, C100K
B6: K85P (designed binder)
chain: B1 chain with K85P, C100K
B7: K18T (designed binder)
chain: B1 chain with K18T, C100K
B8: D32P (designed binder)
chain: B1 chain with D32P, C100K
B9: E91T (designed binder)
chain: B1 chain with E91T, C100K
B10: E60P (designed binder)
chain: B1 chain with E60P, C100K
B11: A90E (designed binder)
chain: B1 chain with A90E, C100K
B12: L75F (designed binder)
chain: B1 chain with L75F, C100K
B13: L43T (designed binder)
chain: B1 chain with L43T, C100K
B14: A35H (designed binder)
chain: B1 chain with A35H, C100K
B15: E72F (designed binder)
chain: B1 chain with E72F, C100K
B16: I98Q (designed binder)
chain: B1 chain with I98Q, C100K
B17: E81A (designed binder)
chain: B1 chain with E81A, C100K
B18: E44R (designed binder)
chain: B1 chain with E44R, C100K
B19: M2E (designed binder)
chain: B1 chain with M2E, C100K
B20: A105W (designed binder)
chain: B1 chain with C100K, A105W
B21: E103Q (designed binder)
chain: B1 chain with C100K, E103Q
B22: E61A (designed binder)
chain: B1 chain with E61A, C100K
B23: E60H (designed binder)
chain: B1 chain with E60H, C100K
B24: Y101C (designed binder)
chain: B1 chain with C100K, Y101C
B25: A90M (designed binder)
chain: B1 chain with A90M, C100K
B26: E82G (designed binder)
chain: B1 chain with E82G, C100K
B27: A10H (designed binder)
chain: B1 chain with A10H, C100K
B28: Y13V (designed binder)
chain: B1 chain with Y13V, C100K
B29: K16Y (designed binder)
chain: B1 chain with K16Y, C100K
B30: I87W (designed binder)
chain: B1 chain with I87W, C100K
B31: E62V (designed binder)
chain: B1 chain with E62V, C100K
B32: T97H (designed binder)
chain: B1 chain with T97H, C100K
B33: K8Q (designed binder)
chain: B1 chain with K8Q, C100K
B34: K17R (designed binder)
chain: B1 chain with K17R, C100K
B35: R38T (designed binder)
chain: B1 chain with R38T, C100K
B36: E12A (designed binder)
chain: B1 chain with E12A, C100K
B37: A36C (designed binder)
chain: B1 chain with A36C, C100K
B38: S1T (designed binder)
chain: B1 chain with S1T, C100K
B39: K11E (designed binder)
chain: B1 chain with K11E, C100K
B40: E91L (designed binder)
chain: B1 chain with E91L, C100K
B41: Q84M (designed binder)
chain: B1 chain with Q84M, C100K
B42: E19Q (designed binder)
chain: B1 chain with E19Q, C100K
B43: V95P (designed binder)
chain: B1 chain with V95P, C100K
B44: A9S (designed binder)
chain: B1 chain with A9S, C100K
B45: V95A (designed binder)
chain: B1 chain with V95A, C100K
B46: E12R (designed binder)
chain: B1 chain with E12R, C100K
B47: R66L (designed binder)
chain: B1 chain with R66L, C100K
B48: A46G (designed binder)
chain: B1 chain with A46G, C100K
B49: I98D (designed binder)
chain: B1 chain with I98D, C100K
B50: L40G (designed binder)
chain: B1 chain with L40G, C100K
B51: K73R (designed binder)
chain: B1 chain with K73R, C100K
B52: A36Q (designed binder)
chain: B1 chain with A36Q, C100K
B53: K48G (designed binder)
chain: B1 chain with K48G, C100K
B54: E45N (designed binder)
chain: B1 chain with E45N, C100K
B55: E60R (designed binder)
chain: B1 chain with E60R, C100K
B56: K41D (designed binder)
chain: B1 chain with K41D, C100K
B57: E54V (designed binder)
chain: B1 chain with E54V, C100K
B58: K69S (designed binder)
chain: B1 chain with K69S, C100K
B59: T57W (designed binder)
chain: B1 chain with T57W, C100K

Target: T1, TNFR1
Experiment: yeast display SC50

Row | apparent Kd (screen) [nM] | Binder
1 | 3 | B1
2 | 2.73 | B2
3 | 0.539 | B3
4 | 0.593 | B4
5 | 0.446 | B5
6 | 18.3 | B6
7 | 1.16 | B7
8 | 8.56 | B8
9 | 7.07 | B9
10 | 2.05 | B10
11 | 0.49 | B11
12 | 0.869 | B12
13 | 0.49 | B13
14 | 1.05 | B14
15 | 0.446 | B15
16 | 0.0498 | B16
17 | 0.718 | B17
18 | 0.593 | B18
19 | 0.956 | B19
20 | 13.8 | B20

Row | apparent Kd (screen) [nM] | Binder
21 | 0.49 | B21
22 | 1.27 | B22
23 | 0.593 | B23
24 | 0.446 | B24
25 | 0.446 | B25
26 | 0.446 | B26
27 | 3.3 | B27
28 | 8.56 | B28
29 | 0.446 | B29
30 | 12.5 | B30
31 | 2.73 | B31
32 | 0.653 | B32
33 | 0.956 | B33
34 | 0.653 | B34
35 | 2.05 | B35
36 | 0.446 | B36
37 | 0.79 | B37
38 | 0.49 | B38
39 | 0.446 | B39
40 | 13.8 | B40

Row | apparent Kd (screen) [nM] | Binder
41 | 5.84 | B41
42 | 0.49 | B42
43 | 5.31 | B43
44 | 0.49 | B44
45 | 6.43 | B45
46 | 0.539 | B46
47 | 18.3 | B47
48 | 0.49 | B48
49 | 1.86 | B49
50 | 0.446 | B50
51 | 9.41 | B51
52 | 0.653 | B52
53 | 0.49 | B53
54 | 2.48 | B54
55 | 1.16 | B55
56 | 0.539 | B56
57 | 20.2 | B57
58 | 0.446 | B58
59 | 0.304 | B59

From article PMC12416549 (2024)
